This is an account of results in publication PMC7323979.

This assay concerns the target α-synuclein fibrils (preformed seeds) (human) (UniProt P37840).

Sequence of bovine γB-crystallin (P02526 whole entry): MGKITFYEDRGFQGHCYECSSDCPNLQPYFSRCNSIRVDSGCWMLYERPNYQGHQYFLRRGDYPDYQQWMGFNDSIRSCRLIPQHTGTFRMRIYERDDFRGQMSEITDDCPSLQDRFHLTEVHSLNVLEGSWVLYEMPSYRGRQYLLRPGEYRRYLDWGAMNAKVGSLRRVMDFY

The substance “bovine γB-crystallin (from UniProt P02526 1-175) (natural protein)” registered a lowest crystallin concentration which efficiently inhibits α-syn fibril formation (ThT, 20 μM α-syn monomer, 1 μM α-syn seeds, pH 5.5, 37°C); the same value is also printed as 4.75 μM monomers of 0.1 mg/ml.
